The assay deals with Pin1 WW-domain (UniProt Q13526). Nature of the assay: isothermal titration calorimetry. To be noted: reference: unphosphorylated TFCD peptide; sites S258,S253. Background: In ITC the heat of successive injections is recorded.

Consider “Tissue Factor (TF) cytoplasmic domain (TFCD) (from UniProt P13726) double phosphorylated TFCD peptide”, for which the KD result is recorded as “stronger; reference 1.53 mM”.

The record behind these values is PMC6058786.
